Measured values from US20240301386A1, “Soluble Guanylyl Cyclase (GC1) Mimetic Polypeptides and Methods of Use Thereof” (Rutgers, the State University of New Jersey, priority 2023, published 2024).

Legend:
[1] = tested on: caspase-3; experiment: Caspase-3 activity assay in Jurkat T cells ± etoposide; format: cell-based, human; settings: etoposide 8 μM 16 h compared to samples not treated with ETO
Method: The cells in suspension in 2 ml serum-free medium were treated with either 70% DMSO (20 μL, 0.7% final), scramble peptide, or inhibitory peptide at a final concentration of 10 μM and incubated at 37° C. for 1 h. After incubation, the cells were washed twice and incubated in complete medium at 37° C. for 8 h. The cells were then treated with (or without) etoposide (ETO) at 8 μM final at 37° C. for 16 h.
For Caspase-3 activity assays: After 16 h incubation, the cells were washed twice with cold PBS and lysed in the supplier's 1× lysis buffer (at 10 μL per 10^6 cells). After 15 min incubation on ice, the lysates were centrifuged at 16,000 g for 15 min at 4° C. and the supernatant collected. Caspase-3 activity was measured following the supplier's instructions (CASP3C-1KT, Sigma) after 2 and 3 h incubation.
Whether these observations correlated with an increased caspase-3 activity was next assessed with a colorimetric assay based on cleavage of the substrate […], under the same above conditions. […] It was concluded that disrupting the SNO-GC1→oTrx1→procaspase-3 transnitrosation cascade using a peptide inhibitory of the GC1/Trx1 interaction promotes Jurkat T-cells apoptosis.

[2] = tested on: Jurkat T cells; experiment: Biotin-avidin switch assays of S-nitrosation in Jurkat T cells ± etoposide; format: cell-based, human
Method: Jurkat cells were cultured in a 6-well plate at the density of 0.25×10^6/ml in complete medium RPMI 1640 from Corning (10-040-CV) supplemented with 10% FBS and Pen-Strep and incubated at 37° C. with 5% CO2 for 24 h. The cells were collected by centrifuging at 1000 g for 5 min, washed twice with serum-free medium, and re-suspended with 2 ml serum-free medium prior to peptide treatment.
Free thiols of proteins were blocked in lysis-blocking buffer containing 50 mM Tris, pH 7.5, 150 mM NaCl, 1% Triton X-100, 1 mM EDTA, 2% SDS, 0.1 mM neocuproine, 0.2 mM PSMF, and 40 mM N-ethylmaleimide (NEM) at 50° C. for 30 min in the dark. Excess NEM was removed using cold acetone precipitation. The protein pellets were generated by centrifugating at 14000 g for 10 min at 4° C. and washed 3 times using cold acetone. […]
For biotin-avidin switch assays: After 16 h incubation, the cells were washed twice with cold PBS and lysed in lysis-blocking buffer containing 50 mM Tris, pH 7.5, 150 mM NaCl, 1% Triton X-100, 1 mM EDTA, 2% SDS, 0.1 mM neocuproine, and 40 mM NEM supplemented with PMSF and protease inhibitor cocktail. The protein concentration was measured using the Bradford method. 50 μg of each lysate was analyzed by Western blot as starting material (inputs) and 200 μg proteins of each sample were subjected to the biotin switch and avidin assays, as described elsewhere herein. […]

[3] = target: T1, Oxidized Trx1 (oTrx1), recombinant human Trx1 treated with 100 µM diamide, P10599
T1 chain: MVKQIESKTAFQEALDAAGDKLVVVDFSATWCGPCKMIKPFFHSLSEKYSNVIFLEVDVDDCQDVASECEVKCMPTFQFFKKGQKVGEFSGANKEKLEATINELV

[4] = target: T2, Oxidized GC1 (oGC1), recombinant human GC1 treated with 100 µM diamide, Q02153
T2 chain 1: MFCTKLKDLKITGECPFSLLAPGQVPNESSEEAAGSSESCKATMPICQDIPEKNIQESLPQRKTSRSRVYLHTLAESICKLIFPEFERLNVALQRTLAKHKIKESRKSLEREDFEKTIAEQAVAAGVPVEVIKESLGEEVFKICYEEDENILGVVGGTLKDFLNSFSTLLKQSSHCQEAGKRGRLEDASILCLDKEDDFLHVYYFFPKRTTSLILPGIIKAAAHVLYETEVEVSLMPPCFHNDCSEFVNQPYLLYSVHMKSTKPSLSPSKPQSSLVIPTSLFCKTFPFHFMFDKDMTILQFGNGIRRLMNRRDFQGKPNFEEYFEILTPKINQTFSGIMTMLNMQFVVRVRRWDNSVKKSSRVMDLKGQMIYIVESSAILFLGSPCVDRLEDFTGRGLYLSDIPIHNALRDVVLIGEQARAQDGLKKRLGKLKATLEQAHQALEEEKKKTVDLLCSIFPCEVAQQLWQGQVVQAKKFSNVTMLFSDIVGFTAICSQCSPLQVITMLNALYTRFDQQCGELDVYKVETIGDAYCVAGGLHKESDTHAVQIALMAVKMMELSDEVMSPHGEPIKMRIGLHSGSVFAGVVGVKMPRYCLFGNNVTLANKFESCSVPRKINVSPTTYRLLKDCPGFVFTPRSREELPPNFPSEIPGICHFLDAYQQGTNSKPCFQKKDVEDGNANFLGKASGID
T2 chain 2: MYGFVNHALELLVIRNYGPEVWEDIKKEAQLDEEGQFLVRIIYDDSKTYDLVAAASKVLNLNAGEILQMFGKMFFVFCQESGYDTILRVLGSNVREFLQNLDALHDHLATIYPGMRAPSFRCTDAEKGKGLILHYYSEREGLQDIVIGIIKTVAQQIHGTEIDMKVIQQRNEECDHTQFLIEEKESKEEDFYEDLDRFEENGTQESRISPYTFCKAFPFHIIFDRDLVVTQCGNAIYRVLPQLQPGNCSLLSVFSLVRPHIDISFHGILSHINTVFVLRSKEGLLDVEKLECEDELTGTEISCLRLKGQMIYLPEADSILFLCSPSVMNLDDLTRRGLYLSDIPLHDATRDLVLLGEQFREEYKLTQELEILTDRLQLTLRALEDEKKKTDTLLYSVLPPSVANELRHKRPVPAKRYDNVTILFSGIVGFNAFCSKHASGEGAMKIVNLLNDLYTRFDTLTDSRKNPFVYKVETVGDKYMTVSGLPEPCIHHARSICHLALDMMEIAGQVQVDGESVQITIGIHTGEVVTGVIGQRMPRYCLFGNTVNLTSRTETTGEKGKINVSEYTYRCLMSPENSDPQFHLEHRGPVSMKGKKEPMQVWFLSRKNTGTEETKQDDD

[5] = target: T3, Purified recombinant human soluble guanylyl cyclase (GC1), Q02153
T3 chain 1: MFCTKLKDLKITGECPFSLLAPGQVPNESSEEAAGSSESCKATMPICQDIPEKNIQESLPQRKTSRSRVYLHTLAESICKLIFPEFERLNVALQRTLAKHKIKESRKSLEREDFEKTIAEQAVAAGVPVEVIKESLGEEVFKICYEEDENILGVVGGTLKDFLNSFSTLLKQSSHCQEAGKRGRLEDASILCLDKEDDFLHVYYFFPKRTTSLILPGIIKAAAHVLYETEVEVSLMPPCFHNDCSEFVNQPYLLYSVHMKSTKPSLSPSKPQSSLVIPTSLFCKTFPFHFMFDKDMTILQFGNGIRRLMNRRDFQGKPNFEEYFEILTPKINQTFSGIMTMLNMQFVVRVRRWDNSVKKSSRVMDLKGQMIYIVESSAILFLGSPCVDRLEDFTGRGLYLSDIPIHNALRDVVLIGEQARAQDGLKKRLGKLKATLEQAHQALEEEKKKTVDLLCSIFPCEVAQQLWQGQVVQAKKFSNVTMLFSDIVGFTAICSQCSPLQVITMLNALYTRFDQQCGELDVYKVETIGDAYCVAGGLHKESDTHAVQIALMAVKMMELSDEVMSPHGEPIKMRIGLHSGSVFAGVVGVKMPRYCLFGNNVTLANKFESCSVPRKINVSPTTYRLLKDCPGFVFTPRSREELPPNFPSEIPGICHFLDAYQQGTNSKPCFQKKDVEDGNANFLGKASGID
T3 chain 2: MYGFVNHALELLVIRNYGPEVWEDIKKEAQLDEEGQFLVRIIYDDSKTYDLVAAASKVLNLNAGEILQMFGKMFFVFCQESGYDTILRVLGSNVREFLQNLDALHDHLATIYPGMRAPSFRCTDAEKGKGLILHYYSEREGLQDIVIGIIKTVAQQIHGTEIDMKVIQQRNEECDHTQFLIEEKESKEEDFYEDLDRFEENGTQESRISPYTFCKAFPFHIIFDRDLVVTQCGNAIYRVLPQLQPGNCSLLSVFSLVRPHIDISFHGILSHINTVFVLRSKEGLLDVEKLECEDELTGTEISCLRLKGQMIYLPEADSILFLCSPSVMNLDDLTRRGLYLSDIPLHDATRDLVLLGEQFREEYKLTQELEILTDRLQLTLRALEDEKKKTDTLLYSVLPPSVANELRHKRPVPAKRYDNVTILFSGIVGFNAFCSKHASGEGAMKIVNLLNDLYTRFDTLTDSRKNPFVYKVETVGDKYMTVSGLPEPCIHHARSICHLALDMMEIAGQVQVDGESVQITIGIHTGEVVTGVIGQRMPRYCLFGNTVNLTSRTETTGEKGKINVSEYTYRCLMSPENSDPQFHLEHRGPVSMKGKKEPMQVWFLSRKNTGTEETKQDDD

## COc1cc([C@@H]2c3cc4c(cc3[C@@H](O[C@@H]3O[C@@H]5CO[C@@H](C)O[C@H]5[C@H](O)[C@H]3O)[C@H]3COC(=O)[C@H]23)OCO4)cc(OC)c1O [Etoposide]
[1]
  caspase-3 activity in Jurkat cells treated with ETO: significant increase
[2]; peptide 10 μM 1 h, etoposide 8 μM 16 h (FIG. 8A left panel)
  global levels of S-nitrosation in Jurkat T cells: did not affect
[2]; peptide 10 μM 1 h ± etoposide 8 μM 16 h, avidin purified, compared to DMSO and scramble peptide (FIG. 8A right panel)
  SNO-procaspase-3 level in Jurkat T cells: slightly reduced

B1: Reduced GC1 (rGC1), recombinant human GC1 treated with 10 mM DTT (protein)
chain 1: MFCTKLKDLKITGECPFSLLAPGQVPNESSEEAAGSSESCKATMPICQDIPEKNIQESLPQRKTSRSRVYLHTLAESICKLIFPEFERLNVALQRTLAKHKIKESRKSLEREDFEKTIAEQAVAAGVPVEVIKESLGEEVFKICYEEDENILGVVGGTLKDFLNSFSTLLKQSSHCQEAGKRGRLEDASILCLDKEDDFLHVYYFFPKRTTSLILPGIIKAAAHVLYETEVEVSLMPPCFHNDCSEFVNQPYLLYSVHMKSTKPSLSPSKPQSSLVIPTSLFCKTFPFHFMFDKDMTILQFGNGIRRLMNRRDFQGKPNFEEYFEILTPKINQTFSGIMTMLNMQFVVRVRRWDNSVKKSSRVMDLKGQMIYIVESSAILFLGSPCVDRLEDFTGRGLYLSDIPIHNALRDVVLIGEQARAQDGLKKRLGKLKATLEQAHQALEEEKKKTVDLLCSIFPCEVAQQLWQGQVVQAKKFSNVTMLFSDIVGFTAICSQCSPLQVITMLNALYTRFDQQCGELDVYKVETIGDAYCVAGGLHKESDTHAVQIALMAVKMMELSDEVMSPHGEPIKMRIGLHSGSVFAGVVGVKMPRYCLFGNNVTLANKFESCSVPRKINVSPTTYRLLKDCPGFVFTPRSREELPPNFPSEIPGICHFLDAYQQGTNSKPCFQKKDVEDGNANFLGKASGID
chain 2: MYGFVNHALELLVIRNYGPEVWEDIKKEAQLDEEGQFLVRIIYDDSKTYDLVAAASKVLNLNAGEILQMFGKMFFVFCQESGYDTILRVLGSNVREFLQNLDALHDHLATIYPGMRAPSFRCTDAEKGKGLILHYYSEREGLQDIVIGIIKTVAQQIHGTEIDMKVIQQRNEECDHTQFLIEEKESKEEDFYEDLDRFEENGTQESRISPYTFCKAFPFHIIFDRDLVVTQCGNAIYRVLPQLQPGNCSLLSVFSLVRPHIDISFHGILSHINTVFVLRSKEGLLDVEKLECEDELTGTEISCLRLKGQMIYLPEADSILFLCSPSVMNLDDLTRRGLYLSDIPLHDATRDLVLLGEQFREEYKLTQELEILTDRLQLTLRALEDEKKKTDTLLYSVLPPSVANELRHKRPVPAKRYDNVTILFSGIVGFNAFCSKHASGEGAMKIVNLLNDLYTRFDTLTDSRKNPFVYKVETVGDKYMTVSGLPEPCIHHARSICHLALDMMEIAGQVQVDGESVQITIGIHTGEVVTGVIGQRMPRYCLFGNTVNLTSRTETTGEKGKINVSEYTYRCLMSPENSDPQFHLEHRGPVSMKGKKEPMQVWFLSRKNTGTEETKQDDD
[3]
  conversion of oTrx1 dimers into monomers (non-reducing gel, Western blot): rGC1 converted most of oTrx1 dimer into Trx1 monomers
  conversion of oTrx1 dimers into monomers in the presence of 125 µM scramble peptide: the rGC1-dependent conversation of Trx1 from dimers to monomers was maintained in the presence of the scramble peptide

B2: Reduced Trx1 (rTrx1), recombinant human Trx1 treated with 10 mM DTT (protein)
chain: MVKQIESKTAFQEALDAAGDKLVVVDFSATWCGPCKMIKPFFHSLSEKYSNVIFLEVDVDDCQDVASECEVKCMPTFQFFKKGQKVGEFSGANKEKLEATINELV
[4]
  conversion of oGC1 multimers into monomers (non-reducing gel, Western blot): rTrx1 converted oGC1 multimers into monomers to some extent
  conversion of oGC1 multimers into monomers in the presence of 125 µM scramble peptide: the reducing effect of Trx1 was maintained with the scramble peptide as control

B3: Thioredoxin 1 (Trx1) protein, purified (protein)
chain: MVKQIESKTAFQEALDAAGDKLVVVDFSATWCGPCKMIKPFFHSLSEKYSNVIFLEVDVDDCQDVASECEVKCMPTFQFFKKGQKVGEFSGANKEKLEATINELV
[5]
  NO-stimulated GC1 activity (1 µM DEA-NO), purified GC1 + Trx1 1:7: FIG. 3A first confirmed the increased NO-stimulated activity of GC1 by Trx1
  NO-stimulated GC1 activity, purified GC1 + Trx1 in the presence of peptide 1 (25 µM): Trx1-dependent increase of NO-stimulated GC1 activity was similarly blunted by the 3 peptides
  NO-stimulated GC1 activity, purified GC1 + Trx1 in the presence of peptide 2 (25 µM): Trx1-dependent increase of NO-stimulated GC1 activity was similarly blunted by the 3 peptides
  NO-stimulated GC1 activity, purified GC1 + Trx1 in the presence of peptide 3 (25 µM): Trx1-dependent increase of NO-stimulated GC1 activity was similarly blunted by the 3 peptides
  NO-stimulated GC1 activity, purified GC1 + Trx1 in the presence of the scramble peptide (25 µM): the scramble peptide had no effect
